According to patent US20220334106, “CONJUGATE” (DENSO CORPORATION, published 2022):

Biological target: T1, alpha-amylase (UniProt P0DUB6 P0DUB6:16-511)
T1 sequence: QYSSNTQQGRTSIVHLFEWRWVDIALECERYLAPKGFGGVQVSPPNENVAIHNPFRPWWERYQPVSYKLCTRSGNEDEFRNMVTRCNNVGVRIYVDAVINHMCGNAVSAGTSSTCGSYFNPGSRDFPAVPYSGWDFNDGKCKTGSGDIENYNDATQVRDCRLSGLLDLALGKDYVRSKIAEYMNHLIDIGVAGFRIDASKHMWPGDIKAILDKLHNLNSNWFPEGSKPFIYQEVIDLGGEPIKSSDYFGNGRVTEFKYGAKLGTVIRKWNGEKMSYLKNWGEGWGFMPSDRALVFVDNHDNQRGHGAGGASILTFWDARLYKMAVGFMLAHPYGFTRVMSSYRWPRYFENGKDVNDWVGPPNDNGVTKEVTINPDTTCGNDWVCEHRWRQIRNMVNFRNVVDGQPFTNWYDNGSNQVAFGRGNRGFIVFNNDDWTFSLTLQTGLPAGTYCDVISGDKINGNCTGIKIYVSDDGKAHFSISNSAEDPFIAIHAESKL
Assay: ELONA
Conditions: tags: Lee Biosolutions 120-17

B1: DNA aptamer to SARS-CoV-2 spike RBD, alkaline phosphatase conjugate (ssDNA)
DNA: CAGCACCGACCTTGTGCTTTGGGAGTGCTGGTCCAAGGGCGTTAATGGACA
modifications: 5' biotin via C6 spacer
B1: no binding.
